41 sequences from the nanobody polyreactivity screen of Harvey et al. (2022) can be followed below.

A short description of this data set: yeast display, Sf9 membrane polyspecificity reagent, FACS + sequencing; frameworks hold sequencing errors. In short, it runs like this: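 A nanobody's polyreactivity label depends on the gate it was sorted from. Yeast display cells were stained with 10% biotinylated, detergent-solubilized Sf9 membrane reagent for 1 hour at 4 °C, enriched on streptavidin microbeads and sorted by FACS. The low and high (top ~1%) gates were set on anti-HA fluorescence for expression and streptavidin fluorescence for reagent binding.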
Regarding “QVQLVESGGGLVQAGGSLRLSCAASGSIFSQYAMGWYRQAPGKERELVAAISRSGGTTYYADSVKGRFTISRDNAKNTVYLQMNSLKPEDTAVYYCAADLKARRGSYDRFYYWGQGTQVTVSS”, the “polyreactivity (PSR sort gate)” value was “high polyreactivity”. Then “QVQLVESGGGLVQAGGSLRLSCAASGSIFSRNAKGWYRQAPGKERELVAAISRGANTYYADSVKGRLTISRDNAKNSVYLQMNSLKPEDTAVYYCAARIYKFPYTYDYWGQGTQVTVSS”, with “high polyreactivity”; and “QVQLVESGGGLVQAGGSLRLSCAASGSIFSRNAMGWSRPAPGKERELVAAISWSGGRKYYADSVKGRFTISRDNAKNTVYLQMNSLKPEDTAVYYCAAKVGYLAAYGRIRVYRYGYWGQGTQVTVSS”, with “high polyreactivity”. Then “QVQLVESGGGLVQAGGSLRLSCAASGSIFSRYAMGWYRQAPGKESELVAASRWTDSSTYYADSVKGRFTISRDNAKNTVYLQMNSLKPEDTAVYYCAKVYERGSNKVDYWGQGTQVTVSS”, with “low polyreactivity”; and “QVQLVESGGGLVQAGGSLRLSCAASGSIFSRYAMGWYRQAPGTERELVAAITSSGTSTYYADSVKGRFTISRDNAKNTVYLQMNSLKPEDTAVYYCAAAFRQRTSRYDYWGQGTQVTVSS”, with “high polyreactivity”; and “QVQLVESGGGLVQAGGSLRLSCAASGSIFSRYTMAWYRQAPGKERELVARINSSGTSTYYADSVKGRFTISRDNAKNTVFLQMNSLKPEDTAVYYCARTSRHVRYDYWGQGTQVTVSS”, with “low polyreactivity”. Then “QVQLVESGGGLVQAGGSLRLSCAASGSIFSRYTMGWYRQAPGKERELVARINSSGTSTYYADSVKGRFTISRDNAKITVYLQMNSLKPEDTAVYYCARTSRHVRYDYWGQGTQVTVSS”, with “low polyreactivity”; and “QVQLVESGGGLVQAGGSLRLSCAASGSIFSSNAMGWYRQAPGKDRELVASISWTGGNTYADSVKGRFTISRDNAKNTVYLQMNSLKPEDTAVYYCNAGRSWDYWYGYDYWGQGTQVTVSS”, with “low polyreactivity”. Regarding “QVQLVESGGGLVQAGGSLRLSCAASGSIFSSNAMGWYRQAPGKERELVAAISSSGGSTYYADSVKGRFTISRDNAKNTVYLQKNSLKPEDTAVYYCATGKQVYGHYYWGQGTQVTVSS”, the “polyreactivity (PSR sort gate)” value is listed as “low polyreactivity”. Consider “QVQLVESGGGLVQAGGSLRLSCAASGSIFSSNAMGWYRQAPGKERELVAAITSSGTRTYYADSVKGRFTISRDNAKNTVYLQMNSLKPEDTAVYYCATRLRRSDHRYPYDYWGQGTQVTVSS”, for which the “polyreactivity (PSR sort gate)” value is given as “low polyreactivity”. Then “QVQLVESGGGLVQAGGSLRLSCAASGSIFSSYAMGWYRQAPGKERELVAAISQSGGDTYYADSVKGRFTISRDIAKNTVYLQMNSLKPEDTAVYYCAACVWYYPMDYWGQGTQGTVSS”, with “low polyreactivity”; and “QVQLVESGGGLVQAGGSLRLSCAASGSIFSSYAMGWYRQAPGKERELVAAISSGGGITYYADSVKGRFTISRDNAKNTVYLQMNSLKPEDTAVYYCNARVARSNNGWYYYWGQGTQVTVSS”, with “high polyreactivity”. Then “QVQLVESGGGLVQAGGSLRLSCAASGSIFSSYAMGWYRQAPGKERELVAAISSSGDSTYADSVKGRFTISRDNAKNTVYLQMNSLKPEDTAVYYCAVGGAGSDDYWGQGTQVTVSS”, with “low polyreactivity”.

In the case of “QVQLVESGGGLVQAGGSLRLSCAASGSIFSSYAMGWYRQAPGKERELVAAISWRGGSTYYADSVKGRFTISRDNAKNTVYLQMNSLKPEDTAVYYCAAQYQYYGGRRYDYWGQGTQVTVSS”, the “polyreactivity (PSR sort gate)” value is “high polyreactivity”. As for “QVQLVESGGGLVQAGGSLRLSCAASGSIFSSYSMGWYRQAPGKERELVAAISSGDSTYYADSVKGRFTISRDNAKNTVYLQMNSLKPEDTAVYYCAAPWYAWGQGTQVTVSS”, the “polyreactivity (PSR sort gate)” value is recorded as “low polyreactivity”.

For the sequence “QVQLVESGGGLVQAGGSLRLSCAASGSIFSTYAMGWSRQAPGKERELVAAITTSGGRTYYADSVKGRFTISRDNAKNTVYLQMNSLKPEDTAVYYCNAVRGGRYGLDYWGQGTQVTVSS”, the “polyreactivity (PSR sort gate)” value was “high polyreactivity”. Then “QVQLVESGGGLVQAGGSLRLSCAASGSIFSTYAMGWYRQAPGKERELVAAISRRAGTTYYADSVKGRFTISRDNAKNTVYLQMNSLKPEDTAVYYCAALTESSSYGYWGQGTQVTVSS”, with “low polyreactivity”.

As to “QVQLVESGGGLVQAGGSLRLSCAASGSIFSTYAMGWYRQAPGKERELVAALDDDGGSTYYADSVKGRFTISRDNAKNTVYLQMNSLKPEDTAVYYCNADYDGNGWAGDYSDSYDYWGQGTQVTVSS”, the “polyreactivity (PSR sort gate)” value is “low polyreactivity”. Consider “QVQLVESGGGLVQAGGSLRLSCAASGSIFSTYVMVWYRQAPGKDRELVAAITVSVGSTYYADSVKGRFTISRDNAKNTVYLQMNSLKPEDTAVYYCAAYGGTGYPFDAYYHDYDYWGQGTQVTVSS”, for which the “polyreactivity (PSR sort gate)” value is given as “low polyreactivity”.

For the sequence “QVQLVESGGGLVQAGGSLRLSCAASGSIFSVNAMGWYRQAPGKERELVAAISWRGGSTYYADSVKGRFTISRDNAKNTVYLQMNSLKPEDTAVYYCNAVISVKRSTRYGYWGQGTQVTVSS”, the “polyreactivity (PSR sort gate)” value was “low polyreactivity”. Then “QVQLVESGGGLVQAGGSLRLSCAASGSIFSVNAMGWYRQAPGKVRELVAAISWRGGSTYYADSVKGRFTISRYNAKTTVYLQMNSLKPEDTAGYYCNAVISVKRSTRYGYWGQGTQVTVSS”, with “low polyreactivity”. As to “QVQLVESGGGLVQAGGSLRLSCAASGSIFSVNTMGGYRQAPGKERELVADISSGDSTYYADSVKGRFTISRDNAKNTVYLQMNSLKPEDTAVYFCNADVYSWVSGKEGDYWGQGTQVTVSS”, the “polyreactivity (PSR sort gate)” value was “low polyreactivity”. Then “QVQLVESGGGLVQAGGSLRLSCAASGSIFSVYAMGWYRQAPGKERELVAAITSGTSTYADSVKGRFTISRDNAKNTVYLQMNSLKPEDTAVYYCAAEFLWIVDYWGQGTQVTVSS”, with “low polyreactivity”. Turning to “QVQLVESGGGLVQAGGSLRLSCAASGSIFSVYSMGWYRQAPGKERELVADITRSGARTYYADSVKGRFTISRDNAKNTVYFPMNSLKPEDTAVYYCAADDPCYDQVEYWGQGTQVTVSS”, the “polyreactivity (PSR sort gate)” value was “high polyreactivity”.

As to “QVQLVESGGGLVQAGGSLRLSCAASGSIFSVYVMGWYRQAPGKERELVAAISWSDSDTYYADSVKGRFTISRDNAKNTVYLQMNSLKPEDTAVYYCNVVNPVLYSSYEFDYWGQGTQVTVSS”, the “polyreactivity (PSR sort gate)” value is listed as “high polyreactivity”. Consider “QVQLVESGGGLVQAGGSLRLSCAASGSIFSWSAMGWYRQAPGKVRELVAGITWTGGSTYYADSVKGRFTISRDNAKNTVYLQRNSLKPEDTAVYYCNARRATYRKYTPVPFDRYDYWGQGTQVTVSS”, for which the “polyreactivity (PSR sort gate)” value is given as “high polyreactivity”.

“QVQLVESGGGLVQAGGSLRLSCAASGSIFSWYAMGWYRQAHGKEREFVAGISSSGSTKYADSVKGRFTISRDNAKNTVYLQMNSLKPEDTAVYYCAVANKSQRYFYYYFHYYYWGQGTQVTVSS”: the “polyreactivity (PSR sort gate)” value is “low polyreactivity”. Then “QVQLVESGGGLVQAGGSLRLSCAASGSIFSWYAMGWYRQAPGKERELVAAIRRGGSTYYADSVKGRFTISRDNAKNTVYLQMNSLKPEDTAVYYCAARVYTAASRGRGDYWGQGTQVTVSS”, with “low polyreactivity”; and “QVQLVESGGGLVQAGGSLRLSCAASGSIFSWYAMGWYRQAPGKERELVAAIRWSGGRTYYADSVKGRFTISRDNAKNTVYLQMNSLKPEDTAVYYCAADFYPDEYYYWGQGTQVTVSS”, with “high polyreactivity”; and “QVQLVESGGGLVQAGGSLRLSCAASGSIFSYNALGWYRQAPGKEREFVAAISARGGSTYYADSVKGRFTISRDNAKNTVYLLMNSLKPEDTAVYYCAASWGLGTYSDSTYWGGYYYWGQGTQVTVSS”, with “low polyreactivity”. As for “QVQLVESGGGLVQAGGSLRLSCAASGSIFSYNAMGWYREAPGKERELVAAISSRGRTYYADSVKGRFTISRDNAKNTVNLQMNSLKPEDTAVYYCAARGYWDLRTFYYWGQGTQVTVSS”, the “polyreactivity (PSR sort gate)” value is listed as “high polyreactivity”. For the sequence “QVQLVESGGGLVQAGGSLRLSCAASGSIFSYNAMGWYRQAPGKEMELVAAISSGGSTYYADSVKGSFTISRDNAKNTVYLQMNSLKPEDTAVYYCNVYYLIWPYGHQVKRRDYWGQGTQVTVSS”, the “polyreactivity (PSR sort gate)” value is “low polyreactivity”. With “QVQLVESGGGLVQAGGSLRLSCAASGSIFSYNAMGWYRQAPGKERELVAAITWSGGSTYYADSVKGRFTISRDNAKNTVYLQMNSLKPEDTAVYDCAAKGGYSTVRPTYTKFNYWGLGTQVTVSS”, the “polyreactivity (PSR sort gate)” value was “high polyreactivity”.

For “QVQLVESGGGLVQAGGSLRLSCAASGSIFSYYAMGWSRQAPGKERELVAAISSGGSRTYYADSVKGRFTISRDNAKNTVYLQMNSLKPEDTAVYYCNAPAPARYYRGHDYWGQGTQVTVSS”, the “polyreactivity (PSR sort gate)” value is “high polyreactivity”. Take “QVQLVESGGGLVQAGGSLRLSCAASGSIFSYYAMGWYRQAPGKERELFAVINSGGRTNYADSVKGRFTISRDNAKNTVYLQMNSLKPEDTAVYYCAAQGYFVDRAGRYYRGDYWGQGTQVTVSS”: the “polyreactivity (PSR sort gate)” value is listed as “high polyreactivity”. Then “QVQLVESGGGLVQAGGSLRLSCAASGSIFSYYAMGWYRQAPGKERELVAAISQSGGTTYYADSVKGRFTISRDNAKNTDYLQMKSLKPEDTAVYYCAARAPSSFDTQYYYWGQGTQVTVSS”, with “low polyreactivity”; and “QVQLVESGGGLVQAGGSLRLSCAASGSIFSYYAMGWYRQAPGKERELVAAISQSGGTTYYADSVKGRFTISRDNAKNTVYLQMNSLKPEDTAVYYCAARAPSSFDTQYYYWGQGTQVTVSS”, with “low polyreactivity”; and “QVQLVESGGGLVQAGGSLRLSCAASGSIFSYYAMGWYRQAPGKERELVAAISRGGYTYYADSVKGRFTISRDNAKNTVYLQMNSLKPEDTAVYYCAAAPYYVTLVTRRDYWGQGTQVTVSS”, with “high polyreactivity”. Consider “QVQLVESGGGLVQAGGSLRLSCAASGSIFSYYAMGWYRQAPGKERELVAAISVSGGRTYYADSVKGRFTISRDNAKNTVYLQMNSLKPEDTAVYYCATRIRSYYYWGQGTQVTVSS”, for which the “polyreactivity (PSR sort gate)” value was “high polyreactivity”. Take “QVQLVESGGGLVQAGGSLRLSCAASGSIFSYYAMGWYRQAPGKERELVAAISWSGGRTYYADSVKGRFTISRDNAKNTVYLQMNSLKPEDTAVYYCNVDVYVVPHYDYWGQGTQVTVSS”: the “polyreactivity (PSR sort gate)” value is recorded as “high polyreactivity”. Then “QVQLVESGGGLVQAGGSLRLSCAASGSIFSYYAMGWYRQAPGKERELVAANDWNVDSTYYADSVKGRFTISRDNAKNTVYLQLNSLNPEDTAVYYCNAEVYYFYTRYTWYLYDYWRQGTQVTVSS”, with “low polyreactivity”.
